In assay [1] the target is T1, Recombinant human EGFR (human, UniProt P00533 25-645). Description: ELISA; without uPA.
The target of assay [2] is T2, Human CD3 protein (human, UniProt P07766 23-126).
T2 chain: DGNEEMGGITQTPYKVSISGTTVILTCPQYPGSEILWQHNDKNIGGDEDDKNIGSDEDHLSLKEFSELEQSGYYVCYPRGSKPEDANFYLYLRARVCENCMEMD
Description: ELISA; without uPA.

For assay [3], the target named is T1, Recombinant human EGFR. Description: ELISA; with uPA.
In assay [4] the target is T2, Human CD3 protein. Description: ELISA; with uPA.

B1: 1.4.3M-Pa proBiTE (bispecific antibody)
heavy: QDGNEEMGGIGGGSQDGNEEMGGGGGSGGGSGLSGRSDNHGGSEVQLVESGGGLVQPGGSLRLSCAASGFTFNTYAMNWVRQAPGKGLEWVARIRSKYNNYATYYADSVKGRFTISRDDSKNTLYLQMNSLRAEDTAVYYCARHGNFGSSYVSYFAYWGQGTTVTVSSGGGSSGGGGSGGGGSQVQLQESGPGLVKPSETLSLTCTVSGGSVSSGDYYWTWIRQSPGKGLEWIGHIYYSGNTNYNPSLKSRLTISIDTSKTQFSLKLSSVTAADTAIYYCVRDRVTGAFDIWGQGTMVTVSSASTKGPSVFPLAPSSKSTSGGTAALGCLVKDYFPEPVTVSWNSGALTSGVHTFPAVLQSSGLYSLSSVVTVPSSSLGTQTYICNVNHKPSNTKVDKKVEPKSCPPCPAPEAAGGPSVFLFPPKPKDTLMISRTPEVTCVVVDVSHEDPEVKFNWYVDGVEVHNAKTKPREEQYNSTYRVVSVLTVLHQDWLNGKEYKCKVSNKALPAPIEKTISKAKGQPREPQVYTLPPSRDELTKNQVSLLCLVKGFYPSDIAVEWESNGQPENNYKTTPPVLDSDGSFFLHSKLTVDKSRWQQGNVFSCSVMHEALHNHYTQKSLSLSPGK
light: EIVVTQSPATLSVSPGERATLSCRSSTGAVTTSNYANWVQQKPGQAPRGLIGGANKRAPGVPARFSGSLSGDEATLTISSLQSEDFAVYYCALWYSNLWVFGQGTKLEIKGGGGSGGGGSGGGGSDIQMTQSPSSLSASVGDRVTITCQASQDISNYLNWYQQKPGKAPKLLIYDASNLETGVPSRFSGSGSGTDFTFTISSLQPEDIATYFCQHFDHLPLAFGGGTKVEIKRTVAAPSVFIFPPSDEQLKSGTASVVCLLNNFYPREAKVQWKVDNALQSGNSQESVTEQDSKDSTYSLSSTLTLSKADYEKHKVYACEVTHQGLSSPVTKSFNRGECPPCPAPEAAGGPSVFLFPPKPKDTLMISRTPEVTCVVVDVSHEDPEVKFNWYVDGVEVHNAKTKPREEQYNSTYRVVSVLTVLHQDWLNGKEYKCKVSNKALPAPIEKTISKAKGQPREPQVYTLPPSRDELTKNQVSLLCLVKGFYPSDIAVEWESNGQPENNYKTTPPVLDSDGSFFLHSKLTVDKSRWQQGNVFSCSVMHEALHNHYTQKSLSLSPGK
As to B1, the results for the EC50 in assay [1] and in assay [2] were 0.244 µg/mL and 6.57 µg/mL, respectively.

B2: 1.6.1M-Pa proBiTE after uPA digestion (bispecific antibody)
heavy: SDNHGGGGSEVQLVESGGGLVQPGGSLRLSCAASGFTFNTYAMNWVRQAPGKGLEWVARIRSKYNNYATYYADSVKGRFTISRDDSKNTLYLQMNSLRAEDTAVYYCARHGNFGSSYVSYFAYWGQGTTVTVSSASTKGPSVFPLAPSSKSTSGGTAALGCLVKDYFPEPVTVSWNSGALTSGVHTFPAVLQSSGLYSLSSVVTVPSSSLGTQTYICNVNHKPSNTKVDKKVEPKSCPPCPAPEAAGAPSVFLFPPKPKDTLMISRTPEVTCVVVDVSHEDPEVKFNWYVDGVEVHNAKTKPREEQYNSTYRVVSVLTVLHQDWLNGKEYKCKVSNKALPAPIEKTISKAKGQPREPQVYTLPPSRDELTKNQVSLLCLVKGFYPSDIAVEWESNGQPENNYKTTPPVLDSDGSFFLHSKLTVDKSRWQQGNVFSCSVMHEALHNHYTQKSLSLSPGK
light: QVQLQESGPGLVKPSETLSLTCTVSGGSVSSGDYYWTWIRQSPGKGLEWIGHIYYSGNTNYNPSLKSRLTISIDTSKTQFSLKLSSVTAADTAIYYCVRDRVTGAFDIWGQGTMVTVSSGGGGSGGGGSGGGGSGGGGSDIQMTQSPSSLSASVGDRVTITCQASQDISNYLNWYQQKPGKAPKLLIYDASNLETGVPSRFSGSGSGTDFTFTISSLQPEDIATYFCQHFDHLPLAFGGGTKVEIKGGGGSGGGGSGGGGSGGGGSEIVVTQSPATLSVSPGERATLSCRSSTGAVTTSNYANWVQQKPGQAPRGLIGGANKRAPGVPARFSGSLSGDEATLTISSLQSEDFAVYYCALWYSNLWVFGQGTKLEIKRTVAAPSVFIFPPSDEQLKSGTASVVCLLNNFYPREAKVQWKVDNALQSGNSQESVTEQDSKDSTYSLSSTLTLSKADYEKHKVYACEVTHQGLSSPVTKSFNRGECPPCPAPEAAGAPSVFLFPPKPKDTLMISRTPEVTCVVVDVSHEDPEVKFNWYVDGVEVHNAKTKPREEQYNSTYRVVSVLTVLHQDWLNGKEYKCKVSNKALPAPIEKTISKAKGQPREPQVYTLPPSRDELTKNQVSLLCLVKGFYPSDIAVEWESNGQPENNYKTTPPVLDSDGSFFLHSKLTVDKSRWQQGNVFSCSVMHEALHNHYTQKSLSLSPGK
Consider B2, for which the EC50 in assay [3] is 0.0186 µg/mL; in assay [4], 0.67 µg/mL.

The values are drawn from patent publication US20250361299A1 (published 2025).
